The values that follow come from patent publication US20240132604A1.

The target of this test is CHO-hCCR8 (human) (UniProt P51685). As to the kind of experiment: FACS binding, CHO-K1 cells overexpressing human CCR8. A general note: In flow cytometry, cells or beads pass a laser one at a time.
Sequence of UniProt P51685 (P51685 whole entry): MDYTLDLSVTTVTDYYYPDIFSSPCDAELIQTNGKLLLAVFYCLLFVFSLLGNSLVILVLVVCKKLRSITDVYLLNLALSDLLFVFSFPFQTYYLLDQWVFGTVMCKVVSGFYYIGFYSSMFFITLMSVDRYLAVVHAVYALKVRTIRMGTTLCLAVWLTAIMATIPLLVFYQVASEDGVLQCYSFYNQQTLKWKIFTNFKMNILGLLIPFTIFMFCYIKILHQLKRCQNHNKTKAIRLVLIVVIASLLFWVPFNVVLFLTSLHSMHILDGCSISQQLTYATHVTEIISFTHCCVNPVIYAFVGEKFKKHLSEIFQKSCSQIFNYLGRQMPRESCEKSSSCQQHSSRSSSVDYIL

One may read the EC50 as the concentration at which the effect is half-maximal. Read a low EC50 as higher potency in that assay. The substance GS-1811 came in with an EC50 of 0.658 nM.
